Reference: patent publication US20250223354A1 (BIOTHEUS, published 2025)

Key:
[1] = target: T1, human TIGIT expressed on cells (human, UniProt Q495A1 22-244); experiment: flow cytometry, CHO-huTIGIT cells
T1 construct: whole, on cells; cDNA encoding human TIGIT in pCHO1.0 for CHO cells; also called CHO-huTIGIT cells
T1 sequence (looked up): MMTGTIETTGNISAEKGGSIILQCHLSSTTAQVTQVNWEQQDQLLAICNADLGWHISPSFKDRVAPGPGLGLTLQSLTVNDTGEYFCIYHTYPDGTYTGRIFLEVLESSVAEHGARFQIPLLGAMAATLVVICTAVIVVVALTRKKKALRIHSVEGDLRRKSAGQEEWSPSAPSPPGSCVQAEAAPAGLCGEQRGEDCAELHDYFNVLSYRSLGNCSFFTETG
Excerpt: (§1) Specifically, CHO cells overexpressing human TIGIT (CHO-huTIGIT cells), CHO cells overexpressing cynomolgus TIGIT (CHO-cynoTIGIT cells) and CHO cells overexpressing mouse TIGIT (CHO-muTIGIT cells) were generated by transfection of the pCHO1.0 vector (purchased from Invitrogen) with cDNA encoding human TIGIT, cynomolgus TIGIT and mouse TIGIT cloned into the multiple cloning site (MCS), respectively, followed by pressure screening. The overexpressing cells were expanded and adjusted to an appropriate cell density, and added to a 96-well flow cytometry plate. After centrifugation, the cells were added with a gradiently diluted sample to be tested, and incubated at 4° C. for 30 minutes. The cells were washed twice with PBS, and added with a fluorescent secondary antibody correspondingly diluted to an appropriate concentration, then incubated at 4° C. for 30 minutes, and washed twice with PBS. Cells were resuspended with PBS, and detected on a CytoFlex flow cytometer, and the corresponding MFI was calculated. Graphpad software was used for graphical analysis to obtain EC₅₀ values.

[2] = target: T2, mouse TIGIT overexpressed on CHO cells (mouse, UniProt P86176 29-249); experiment: flow cytometry blocking assay: binding of mouse CD155 protein with mouse IgG2a Fc tag to CHO cells overexpressing mouse TIGIT, median fluorescence intensity APC-A; unit from the concentration axis
T2 construct: whole, on cells; also called CHO-muTIGIT cells
T2 sequence (looked up): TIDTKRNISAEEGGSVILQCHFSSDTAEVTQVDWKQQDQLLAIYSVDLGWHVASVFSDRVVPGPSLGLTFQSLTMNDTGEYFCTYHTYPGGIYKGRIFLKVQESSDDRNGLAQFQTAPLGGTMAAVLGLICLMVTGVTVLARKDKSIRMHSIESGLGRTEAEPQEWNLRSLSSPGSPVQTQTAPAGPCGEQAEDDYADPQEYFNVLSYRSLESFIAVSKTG
Experimental: (§2) The CHO-muTIGIT cells were expanded and adjusted to a cell density of 2×10⁶ cells/mL, added to a 96-well flow plate at 100 μL/well, and centrifuged for later use. The purified antibodies were diluted 3-fold with PBS starting at 400 nM for a total of 12 concentration gradients. […] APC-conjugated goat anti-mouse IgG antibody diluted 100-fold with PBS was added at 100 μL/well, incubated at 4° C. for 30 minutes, and washed twice with PBS. Cells were resuspended with PBS at 100 μL/well, and detected on a CytoFlex flow cytometer, and the corresponding MFI was calculated. Graphpad software was used for graphing analysis to obtain IC₅₀ values.

[3] = target: T2, mouse TIGIT overexpressed on CHO cells; experiment: flow cytometry on CHO cells overexpressing mouse TIGIT, median fluorescence intensity PE-A; unit from the concentration axis
Excerpt: as §1

[4] = target: T3, cynomolgus TIGIT overexpressed on CHO cells (cynomolgus, UniProt A0A7N9I9V4 89-312); experiment: flow cytometry on CHO cells overexpressing cynomolgus TIGIT, median fluorescence intensity PE-A; unit from the concentration axis
T3 construct: whole, on cells; also called CHO-cynoTIGIT cells
T3 sequence (A0A7N9I9V4 entry or part of it): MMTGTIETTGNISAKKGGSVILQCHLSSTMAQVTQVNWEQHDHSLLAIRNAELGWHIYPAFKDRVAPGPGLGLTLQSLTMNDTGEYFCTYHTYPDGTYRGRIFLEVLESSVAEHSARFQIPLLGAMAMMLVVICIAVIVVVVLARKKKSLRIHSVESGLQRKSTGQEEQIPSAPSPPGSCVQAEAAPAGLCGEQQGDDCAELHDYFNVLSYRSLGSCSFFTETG
Excerpt: as §1

[5] = target: T1, human TIGIT expressed on cells; experiment: flow cytometry, competition with human CD155-mouse IgG2a Fc (2 ug/mL) on CHO-huTIGIT cells
Experimental: as §2, with “Specifically, the CHO-huTIGIT” for “The CHO-muTIGIT”, “purified monoclonal” for “purified”, “gradients. The diluted sample was added at 60 μL/well to the cells-carrying 96-well flow plate, and incubated at 4° C. for 30 minutes.” for “gradients.”, “calculated.” for “calculated. Graphpad software was used for graphing analysis to obtain IC₅₀ values.”

[6] = target: T1, human TIGIT expressed on cells; experiment: flow cytometry on activated human primary T cells (TIGIT), readout positive cell (%); unit from the concentration axis
Excerpt: The binding activity of the anti-TIGIT antibody of the present invention to TIGIT on the surface of activated T cells was detected based on the flow cytometry detection method.
Specifically, human PBMC were sorted according to the experimental protocol provided by […] Company (stemcell, Cat. No.: #17951C) to obtain human total T cells. […] The activated T cells were adjusted to an appropriate cell density and added to a 96-well flow cytometry plate. After centrifugation, the gradiently diluted sample to be tested was added, and incubated at 4° C. for 30 minutes. Washing was carried out twice with PBS, and a fluorescent secondary antibody diluted to an appropriate concentration was added, incubated at 4° C. for 30 minutes, and washed twice with PBS. […]

[7] = target: T1, human TIGIT expressed on cells; experiment: flow cytometry on CHO cells overexpressing human TIGIT, median fluorescence intensity PE-A; unit from the concentration axis
Excerpt: as §1

[8] = target: T2, mouse TIGIT overexpressed on CHO cells; experiment: flow cytometry, CHO-muTIGIT cells
Excerpt: as §1

[9] = target: T1, human TIGIT expressed on cells; experiment: flow cytometry blocking assay: binding of human CD155 protein with mouse IgG2a Fc tag to CHO cells overexpressing human TIGIT, median fluorescence intensity APC-A; unit from the concentration axis
Experimental: as §2, with “Specifically, the CHO-huTIGIT” for “The CHO-muTIGIT”, “purified monoclonal” for “purified”, “gradients. The diluted sample was added at 60 μL/well to the cells-carrying 96-well flow plate, and incubated at 4° C. for 30 minutes.” for “gradients.”, “calculated.” for “calculated. Graphpad software was used for graphing analysis to obtain IC₅₀ values.”

B1: anti-TIGIT monoclonal antibody 55796-G1 (antibody, V domains shown)
VH: QLQLQESGPGLVKPAETLSLTCTVSGGSISSYDHYWTWIRQPPGKGLEWIGTVYYSGSTFHNPSLKSRVTIPVDTSKNQFSLKLSSVTAADTAVYYCARVGPDVSHPPFDYWGQGTLVTVSS
VL: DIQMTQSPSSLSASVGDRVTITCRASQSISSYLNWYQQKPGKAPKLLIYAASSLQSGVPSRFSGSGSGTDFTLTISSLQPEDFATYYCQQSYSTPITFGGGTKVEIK
notes: Wild-type human IgG1 heavy chain constant region, human kappa light chain constant region
An EC50 [1] of 0.96 nM, an IC50 [2] of 1.5 nM and an EC50 [3] of 2.96 nM were found for B1 in this work. The EC50 [4] was 1.32 nM, the IC50 [5] was 0.24 nM and the EC50 [6] was 0.106 nM. It also gave an EC50 [7] of 0.962 nM, an EC50 [8] of 2.96 nM and an IC50 [9] of 0.236 nM.

B2: anti-TIGIT monoclonal antibody 55796-G1LALA (antibody, V domains shown)
VH: QLQLQESGPGLVKPAETLSLTCTVSGGSISSYDHYWTWIRQPPGKGLEWIGTVYYSGSTFHNPSLKSRVTIPVDTSKNQFSLKLSSVTAADTAVYYCARVGPDVSHPPFDYWGQGTLVTVSS
VL: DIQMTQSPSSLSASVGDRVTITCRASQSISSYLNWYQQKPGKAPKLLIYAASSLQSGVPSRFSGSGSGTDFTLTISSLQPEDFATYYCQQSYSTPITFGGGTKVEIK
notes: Human IgG1 heavy chain constant region modified by L234A, L235A; human kappa light chain constant region; HEK293
An EC50 [1] of 0.84 nM, an IC50 [2] of 1.56 nM and an EC50 [3] of 3.36 nM were found for B2 in this work. It also gave an EC50 [4] of 1.34 nM, an IC50 [5] of 0.37 nM and an EC50 [6] of 0.0878 nM. It also gave an EC50 [7] of 0.845 nM, an EC50 [8] of 3.36 nM and an IC50 [9] of 0.373 nM.
